According to publication PMC4334965, “Molecular Bases of Catalysis and ADP-Ribose Preference of Human Mn^2+-Dependent ADP-Ribose/CDP-Alcohol Diphosphatase and Conversion by Mutagenesis to a Preferential Cyclic ADP-Ribose Phosphohydrolase” (PLoS ONE, 2015):

Legend:
Format in all cases: biochemical, Homo sapiens
Conditions in all cases: 5 mM MnCl2, pH 7.5, 37°C
[1] = substrate: C[N+](C)(C)CCOP(=O)(O)OP(=O)([O-])OC[C@H]1O[C@@H](n2ccc(N)nc2=O)[C@H](O)[C@@H]1O; experiment: colorimetric Pi assay coupled to alkaline phosphatase, saturation kinetics
From the text: (§1) colorimetric Pi assay coupled to alkaline phosphatase, saturation kinetics on human ADPRibase-Mn

[2] = substrate: N=c1c2ncn3c2ncn1[C@@H]1O[C@H](COP(=O)(O)OP(=O)(O)OC[C@H]2O[C@@H]3[C@H](O)[C@@H]2O)[C@@H](O)[C@H]1O; experiment: HPLC of N1-(5-phosphoribosyl)-AMP formed, saturation kinetics
From the text: HPLC of N1-(5-phosphoribosyl)-AMP formed, saturation kinetics on human ADPRibase-Mn

[3] = substrate: Nc1ncnc2c1ncn2[C@@H]1O[C@H](CO)[C@H]2OP(=O)(O)O[C@H]21; experiment: colorimetric Pi assay coupled to alkaline phosphatase, saturation kinetics
From the text: as §1

Protein | Km [1] | kcat [1] | kcat/Km [1] | Km [2] | kcat [2] | kcat/Km [2] | Km [3] | kcat [3] | kcat/Km [3]
human ADPRibase-Mn (Homo sapiens; H111A) (protein, full length, 342 aa; expressed as GST fusion (pGEX-6P-3), GST cut off with PreScission protease, 11-aa N-terminal extension …) MDDKPNPEALSDSSERLFSFGVIADVQFADLEDGFNFQGTRRRYYRHSLLHLQGAIEDWNNESSMPCCVLQLGDIIDGYNAQYNASKKSLELVMDMFKRLKVPVHHTWGNAEFYNFSREYLTHSKLNTKFLEDQIVHHPETMPSEDYYAYHFVPFPKFRFILLDAYDLSVLGVDQSSPKYEQCMKILREHNPNTELNSPQGLSEPQFVQFNGGFSQEQLNWLNEVLTFSDTNQEKVVIVSHLPIYPDASDNVCLAWNYRDALAVIWSHECVVCFFAGHTHDGGYSEDPFGVYHVNLEGVIETAPDSQAFGTVHVYPDKMMLKGRGRVPDRIMNYKKERAFHC | 7500 ± 700 µM | 2.2 ± 0.2 s⁻¹ | 300 ± 30 M⁻¹ s⁻¹ |  |  |  |  |  | 
human ADPRibase-Mn (Homo sapiens; Q27H) (protein, full length, 342 aa; expressed as GST fusion (pGEX-6P-3), GST cut off with PreScission protease, 11-aa N-terminal extension …) MDDKPNPEALSDSSERLFSFGVIADVHFADLEDGFNFQGTRRRYYRHSLLHLQGAIEDWNNESSMPCCVLQLGDIIDGYNAQYNASKKSLELVMDMFKRLKVPVHHTWGNHEFYNFSREYLTHSKLNTKFLEDQIVHHPETMPSEDYYAYHFVPFPKFRFILLDAYDLSVLGVDQSSPKYEQCMKILREHNPNTELNSPQGLSEPQFVQFNGGFSQEQLNWLNEVLTFSDTNQEKVVIVSHLPIYPDASDNVCLAWNYRDALAVIWSHECVVCFFAGHTHDGGYSEDPFGVYHVNLEGVIETAPDSQAFGTVHVYPDKMMLKGRGRVPDRIMNYKKERAFHC | 2700 ± 200 µM | 39 ± 12 s⁻¹ | 14000 ± 3000 M⁻¹ s⁻¹ |  |  |  |  |  | 
human ADPRibase-Mn (Homo sapiens; C253A/F37A/L196F) (protein, full length, 342 aa; expressed as GST fusion (pGEX-6P-3), GST cut off with PreScission protease, 11-aa N-terminal extension …) MDDKPNPEALSDSSERLFSFGVIADVQFADLEDGFNAQGTRRRYYRHSLLHLQGAIEDWNNESSMPCCVLQLGDIIDGYNAQYNASKKSLELVMDMFKRLKVPVHHTWGNHEFYNFSREYLTHSKLNTKFLEDQIVHHPETMPSEDYYAYHFVPFPKFRFILLDAYDLSVLGVDQSSPKYEQCMKILREHNPNTEFNSPQGLSEPQFVQFNGGFSQEQLNWLNEVLTFSDTNQEKVVIVSHLPIYPDASDNVALAWNYRDALAVIWSHECVVCFFAGHTHDGGYSEDPFGVYHVNLEGVIETAPDSQAFGTVHVYPDKMMLKGRGRVPDRIMNYKKERAFHC |  |  |  | 460 ± 120 µM | 16 ± 3 s⁻¹ | 35500 ± 4300 M⁻¹ s⁻¹ |  |  | 
human ADPRibase-Mn (Homo sapiens) (protein, full length, 342 aa; expressed as GST fusion (pGEX-6P-3), GST cut off with PreScission protease, 11-aa N-terminal extension …) MDDKPNPEALSDSSERLFSFGVIADVQFADLEDGFNFQGTRRRYYRHSLLHLQGAIEDWNNESSMPCCVLQLGDIIDGYNAQYNASKKSLELVMDMFKRLKVPVHHTWGNHEFYNFSREYLTHSKLNTKFLEDQIVHHPETMPSEDYYAYHFVPFPKFRFILLDAYDLSVLGVDQSSPKYEQCMKILREHNPNTELNSPQGLSEPQFVQFNGGFSQEQLNWLNEVLTFSDTNQEKVVIVSHLPIYPDASDNVCLAWNYRDALAVIWSHECVVCFFAGHTHDGGYSEDPFGVYHVNLEGVIETAPDSQAFGTVHVYPDKMMLKGRGRVPDRIMNYKKERAFHC | 350 ± 60 µM | 50 ± 4 s⁻¹ | 150000 ± 30000 M⁻¹ s⁻¹ | 780 ± 200 µM | 3.2 ± 0.2 s⁻¹ | 4000 ± 1000 M⁻¹ s⁻¹ | 2400 ± 300 µM | 60 ± 13 s⁻¹ | 25000 ± 6000 M⁻¹ s⁻¹
human ADPRibase-Mn (Homo sapiens; F210A) (protein, full length, 342 aa; expressed as GST fusion (pGEX-6P-3), GST cut off with PreScission protease, 11-aa N-terminal extension …) MDDKPNPEALSDSSERLFSFGVIADVQFADLEDGFNFQGTRRRYYRHSLLHLQGAIEDWNNESSMPCCVLQLGDIIDGYNAQYNASKKSLELVMDMFKRLKVPVHHTWGNHEFYNFSREYLTHSKLNTKFLEDQIVHHPETMPSEDYYAYHFVPFPKFRFILLDAYDLSVLGVDQSSPKYEQCMKILREHNPNTELNSPQGLSEPQFVQANGGFSQEQLNWLNEVLTFSDTNQEKVVIVSHLPIYPDASDNVCLAWNYRDALAVIWSHECVVCFFAGHTHDGGYSEDPFGVYHVNLEGVIETAPDSQAFGTVHVYPDKMMLKGRGRVPDRIMNYKKERAFHC | 11000 ± 2600 µM | 50 ± 12 s⁻¹ | 4000 ± 100 M⁻¹ s⁻¹ |  |  |  |  |  | 
human ADPRibase-Mn (Homo sapiens; C253A) (protein, full length, 342 aa; expressed as GST fusion (pGEX-6P-3), GST cut off with PreScission protease, 11-aa N-terminal extension …) MDDKPNPEALSDSSERLFSFGVIADVQFADLEDGFNFQGTRRRYYRHSLLHLQGAIEDWNNESSMPCCVLQLGDIIDGYNAQYNASKKSLELVMDMFKRLKVPVHHTWGNHEFYNFSREYLTHSKLNTKFLEDQIVHHPETMPSEDYYAYHFVPFPKFRFILLDAYDLSVLGVDQSSPKYEQCMKILREHNPNTELNSPQGLSEPQFVQFNGGFSQEQLNWLNEVLTFSDTNQEKVVIVSHLPIYPDASDNVALAWNYRDALAVIWSHECVVCFFAGHTHDGGYSEDPFGVYHVNLEGVIETAPDSQAFGTVHVYPDKMMLKGRGRVPDRIMNYKKERAFHC |  |  |  | 200 ± 40 µM | 8.9 ± 0.8 s⁻¹ | 44000 ± 9000 M⁻¹ s⁻¹ |  |  | 
